The experiment addresses GmILPA1-cYFP (soybean (Glycine max)). Put plainly: split reporter (BiFC, NanoBiT); BiFC with nYFP and cYFP fusions co-infiltrated into N. benthamiana leaves together with P19; confocal microscopy; leaves in white light or exposed to 1 h of UV-B (21 μmol m^-2 s^-1).

Chain of GmILPA1-cYFP (soybean (Glycine max)) (main, as listed by the source): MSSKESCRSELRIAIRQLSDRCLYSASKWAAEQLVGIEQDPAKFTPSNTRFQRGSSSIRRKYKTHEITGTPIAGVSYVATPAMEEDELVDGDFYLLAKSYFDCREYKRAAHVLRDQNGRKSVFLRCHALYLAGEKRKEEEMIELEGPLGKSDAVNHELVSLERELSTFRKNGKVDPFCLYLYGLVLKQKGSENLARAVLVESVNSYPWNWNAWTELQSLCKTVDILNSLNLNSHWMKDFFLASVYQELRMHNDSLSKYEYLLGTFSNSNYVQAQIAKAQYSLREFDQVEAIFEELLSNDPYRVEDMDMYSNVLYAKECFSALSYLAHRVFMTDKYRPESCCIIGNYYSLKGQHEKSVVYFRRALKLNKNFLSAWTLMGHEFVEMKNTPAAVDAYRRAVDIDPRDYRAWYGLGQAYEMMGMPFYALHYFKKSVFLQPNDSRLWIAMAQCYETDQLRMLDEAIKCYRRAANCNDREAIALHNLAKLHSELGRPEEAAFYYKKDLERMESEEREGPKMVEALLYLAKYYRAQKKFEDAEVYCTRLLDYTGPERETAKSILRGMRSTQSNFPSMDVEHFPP

Consider GmGA2ox-like-nYFP (enzyme), for which the fold change of the relative BiFC fluorescence intensity in the cytoplasm, UV-B against white light came out at 3 fold.

Values taken from publication PMC10560287.
